In one series the target is T1, TbDHSc-TbDHSp (Trypanosoma brucei, UniProt Q38BX0+Q4GZD1).
T1 construct: gene DHSc; His6-SUMO-TbDHSc co-expressed with tagless TbDHSp in E. coli; SUMO tag cut with Ulp1, tag-free; 50 kDa + 37 kDa; 2:2 heterotetramer, 175 kDa
T1 sequence (Q38BX0 1-461): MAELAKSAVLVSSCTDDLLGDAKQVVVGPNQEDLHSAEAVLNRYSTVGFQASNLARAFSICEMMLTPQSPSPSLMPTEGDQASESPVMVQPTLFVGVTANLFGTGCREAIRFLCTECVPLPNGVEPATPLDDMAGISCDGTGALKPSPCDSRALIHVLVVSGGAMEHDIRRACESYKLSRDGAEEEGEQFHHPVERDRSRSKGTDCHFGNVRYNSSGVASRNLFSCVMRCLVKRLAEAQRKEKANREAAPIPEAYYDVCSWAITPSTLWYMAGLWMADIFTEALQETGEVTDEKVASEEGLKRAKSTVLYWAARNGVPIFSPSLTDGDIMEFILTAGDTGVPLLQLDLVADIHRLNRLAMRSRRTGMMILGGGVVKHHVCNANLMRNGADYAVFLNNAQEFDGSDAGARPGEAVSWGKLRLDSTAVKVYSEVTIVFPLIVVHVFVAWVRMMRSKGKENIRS
T1 sequence (Q4GZD1 1-342): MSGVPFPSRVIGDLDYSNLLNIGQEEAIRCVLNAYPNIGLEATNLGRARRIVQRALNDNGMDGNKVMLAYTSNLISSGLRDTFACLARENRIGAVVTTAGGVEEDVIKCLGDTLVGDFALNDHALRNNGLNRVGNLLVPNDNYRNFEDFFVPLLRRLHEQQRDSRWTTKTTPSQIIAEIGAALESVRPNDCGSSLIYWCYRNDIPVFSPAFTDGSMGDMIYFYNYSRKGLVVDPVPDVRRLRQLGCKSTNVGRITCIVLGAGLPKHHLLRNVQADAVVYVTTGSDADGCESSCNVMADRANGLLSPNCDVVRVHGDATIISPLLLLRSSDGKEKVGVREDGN
The series is described as follows: [3H]spermidine incorporation into eIF5A, nitrocellulose filter binding assay. Format: biochemical. The text has this:
[3H]spermidine incorporation into eIF5A, nitrocellulose filter binding assay on TbDHSc-TbDHSp | GC7 inhibited the activity of TbDHSc-TbDBHSp and the growth of BSF cells at similar concentrations

Substrate in series [1]: NC(=O)c1ccc[n+]([C@@H]2O[C@H](COP(=O)(O)OP(=O)(O)OC[C@H]3O[C@@H](n4cnc5c(N)ncnc54)[C@H](O)[C@@H]3O)[C@@H](O)[C@H]2O)c1
The series is described as above. Format: biochemical, Trypanosoma brucei. To be noted: 100 μM TbeIF5A, 100 μM spermidine, pH 9.3 glycine-NaOH, 37 °C, 1 mM DTT, varied: cofactor. The source says: (§1) [3H]spermidine incorporation into eIF5A, nitrocellulose filter binding assay on TbDHSc-TbDHSp

Substrate in series [2]: NCCCCNCCCN
The series is described as above. To be noted: 1 mM NAD+, 100 μM TbeIF5A, pH 9.3 glycine-NaOH, 37 °C, 1 mM DTT, labelled compound. Format: biochemical, Trypanosoma brucei.
Description: as §1

Series [3] has as its target T2, TbDHSc (T. brucei deoxyhypusine synthase, catalytic subunit), recombinant, expressed as His6-SUMO-TbDHSc (T. brucei, UniProt Q38BX0 1-461).
T2 construct: T. brucei deoxyhypusine synthase catalytic subunit (TbDHSc), TriTrypDB Tb927.10.2750; open reading frame cloned into pE-SUMO Kan; 50 kDa on SDS-PAGE; it was removed with Ulp1 before gel filtration and sedimentation velocity; not shown: His6-SUMO, N-terminal, cleaved
T2 sequence (looked up): T1 sequence (Q38BX0 1-461)
The series is described as follows: AUC; sedimentation velocity of the purified TbDHSc-TbDHSp complex at A280 0.7, 0.2 and 0.05 in 50 mM Hepes, 150 mM NaCl, pH 8.0; 20 °C, 40,000 rpm; interference data analysed with SEDFIT c(s). Conditions: both partners purified.

The IC50 is the concentration that gives 50% inhibition. Higher therefore signals weaker potency in that assay. At TbDHSc-TbDHSp, `N=C(N)NCCCCCCCN` [GC7] came in with a half-maximal inhibitory concentration (IC50) of 1500 ± 150 nM.

B1: TbDHSc-TbDHSp (Trypanosoma brucei brucei TREU927) (protein)
chain 1: T1 sequence (Q38BX0 1-461)
chain 2: T1 sequence (Q4GZD1 1-342)
notes: His6-SUMO-TbDHSc co-expressed with tagless TbDHSp in E. coli; SUMO tag cut with Ulp1, tag-free; 50 kDa + 37 kDa; 2:2 heterotetramer, 175 kDa
The Km is the substrate concentration at which the rate is half of its maximum. For orientation: kcat means the number of substrate molecules converted per active site and unit of time at saturation. On to B1, for which, in series [1], the Km is 82 ± 16 µM and the kcat came to 0.018 ± 0.001 s⁻¹. For the same molecule, in series [2], the Michaelis constant (Km) worked out at 43 ± 5 µM and the kcat came out at 0.015 ± 0.001 s⁻¹.

B2: TbDHSp (T. brucei deoxyhypusine synthase prozyme (activating) subunit), recombinant, untagged (natural protein, UniProt Q4GZD1 1-342, looked up)
chain: T1 sequence (Q4GZD1 1-342)
notes: T. brucei deoxyhypusine synthase prozyme subunit (TbDHSp), catalytically dead paralog, TriTrypDB Tb927.1.870; open reading frame cloned untagged into the HindIII-KpnI site of pT7-FLAG-MAT-Tag-2 with a stop codon inserted; 37 kDa on SDS-PAGE; the vector's C-terminal tag was removed by insertion of a stop codon; also called tagless TbDHSp; untagged TbDHSp
What is called stoichiometry N is the number of molecules, sites or subunits per partner or assembly. As to B2, the “stoichiometry N” value in series [3] is 1 TbDHSp per TbDHSc (2:2 heterotetramer).

Values taken from article PMC3663545, “Allosteric Activation of Trypanosomatid Deoxyhypusine Synthase by a Catalytically Dead Paralog*^([image sbox.jpg])^♦” (The Journal of Biological Chemistry, 2013).
